test: melting temperature; melt of duplexes; settings: sodium 0.0675 M; strand 1 µM

In order of rising Tm:
1. CGACGTGCGCCATGTGCTG+CAGCACATACTGCACGTCG ((((((((...((((((((+))))))))...))))))))  48.2 °C
2. CGACGTGCGCCATGTGCTG+CAGCACATAATGCACGTCG ((((((((...((((((((+))))))))...))))))))  48.6 °C
3. CGACGTGCGCAATGTGCTG+CAGCACATCTTGCACGTCG ((((((((...((((((((+))))))))...))))))))  48.7 °C
4. CGACGTGCGATATGTGCTG+CAGCACATGGTGCACGTCG ((((((((...((((((((+))))))))...))))))))  49.2 °C
5. CGACGTGCGCAATGTGCTG+CAGCACATATTGCACGTCG ((((((((...((((((((+))))))))...))))))))  49.2 °C
6. CGACGTGCGCAATGTGCTG+CAGCACATCCTGCACGTCG ((((((((...((((((((+))))))))...))))))))  49.2 °C
7. CGACGTGCGATATGTGCTG+CAGCACATCCGGCACGTCG ((((((((...((((((((+))))))))...))))))))  49.3 °C
8. CGACGTGCGCAATGTGCTG+CAGCACATCTGGCACGTCG ((((((((...((((((((+))))))))...))))))))  49.8 °C
9. CGACGTGCGATATGTGCTG+CAGCACATCTGGCACGTCG ((((((((.(.((((((((+)))))))).).))))))))  50 °C
10. CGACGTGCGATATGTGCTG+CAGCACATTGGGCACGTCG ((((((((...((((((((+))))))))...))))))))  50.3 °C
11. CGACGTGCGCAATGTGCTG+CAGCACATAATGCACGTCG ((((((((...((((((((+))))))))...))))))))  50.5 °C
12. CGACGTGCGCAATGTGCTG+CAGCACATATGGCACGTCG ((((((((...((((((((+))))))))...))))))))  50.7 °C
13. CGACGTGCGATATGTGCTG+CAGCACATTAGGCACGTCG ((((((((...((((((((+))))))))...))))))))  50.8 °C
14. CGACGTGCGCAATGTGCTG+CAGCACATAAGGCACGTCG ((((((((...((((((((+))))))))...))))))))  50.9 °C
15. CGACGTGCGCAATGTGCTG+CAGCACATCCAGCACGTCG ((((((((...((((((((+))))))))...))))))))  51.1 °C
16. CGACGTGCGATATGTGCTG+CAGCACATCTTGCACGTCG ((((((((.(.((((((((+)))))))).).))))))))  51.2 °C
17. CGACGTGCGCCATGTGCTG+CAGCACATACAGCACGTCG ((((((((...((((((((+))))))))...))))))))  51.3 °C
18. CGACGTGCGCAATGTGCTG+CAGCACATACAGCACGTCG ((((((((...((((((((+))))))))...))))))))  51.4 °C
19. CGACGTGCGCAATGTGCTG+CAGCACATAGTGCACGTCG ((((((((.(.((((((((+)))))))).).))))))))  51.6 °C
20. CGACGTGCGATATGTGCTG+CAGCACATAAGGCACGTCG ((((((((..(((((((((+)))))))))..))))))))  52 °C
21. CGACGTGCGATATGTGCTG+CAGCACATCAAGCACGTCG ((((((((...((((((((+))))))))...))))))))  52.1 °C
22. CGACGTGCGCAATGTGCTG+CAGCACATGAGGCACGTCG ((((((((...((((((((+))))))))...))))))))  52.4 °C
23. CGACGTGCGCCATGTGCTG+CAGCACATAACGCACGTCG (((((((((..((((((((+))))))))..)))))))))  52.4 °C
24. CGACGTGCGATATGTGCTG+CAGCACATTTTGCACGTCG ((((((((.(.((((((((+)))))))).).))))))))  52.5 °C
25. CGACGTGCGCAATGTGCTG+CAGCACATTTGGCACGTCG ((((((((..(((((((((+)))))))))..))))))))  52.5 °C
26. CGACGTGCGATATGTGCTG+CAGCACATACTGCACGTCG ((((((((..(((((((((+)))))))))..))))))))  52.6 °C
27. CGACGTGCGATATGTGCTG+CAGCACATTCGGCACGTCG ((((((((...((((((((+))))))))...))))))))  52.7 °C
28. CGACGTGCGCAATGTGCTG+CAGCACATTAGGCACGTCG ((((((((..(((((((((+)))))))))..))))))))  52.7 °C
29. CGACGTGCGATATGTGCTG+CAGCACATTCAGCACGTCG ((((((((...((((((((+))))))))...))))))))  52.8 °C
30. CGACGTGCGCCATGTGCTG+CAGCACATAGGGCACGTCG ((((((((.(.((((((((+)))))))).).))))))))  52.8 °C
31. CGACGTGCGATATGTGCTG+CAGCACATGAGGCACGTCG ((((((((...((((((((+))))))))...))))))))  53.1 °C
32. CGACGTGCGCAATGTGCTG+CAGCACATCAAGCACGTCG ((((((((...((((((((+))))))))...))))))))  53.1 °C
33. CGACGTGCGATATGTGCTG+CAGCACATCGAGCACGTCG ((((((((...((((((((+))))))))...))))))))  53.6 °C
34. CGACGTGCGATATGTGCTG+CAGCACATGCAGCACGTCG ((((((((...((((((((+))))))))...))))))))  53.6 °C
35. CGACGTGCGATATGTGCTG+CAGCACATCACGCACGTCG (((((((((..((((((((+))))))))..)))))))))  53.7 °C
36. CGACGTGCGCAATGTGCTG+CAGCACATGACGCACGTCG (((((((((..((((((((+))))))))..)))))))))  54.4 °C
37. CGACGTGCGATATGTGCTG+CAGCACATGTTGCACGTCG ((((((((.(.((((((((+)))))))).).))))))))  54.6 °C
38. CGACGTGCGCAATGTGCTG+CAGCACATAGAGCACGTCG ((((((((.(.((((((((+)))))))).).))))))))  54.7 °C
39. CGACGTGCGATATGTGCTG+CAGCACATGTAGCACGTCG ((((((((.(.((((((((+)))))))).).))))))))  54.9 °C
40. CGACGTGCGCAATGTGCTG+CAGCACATGTCGCACGTCG (((((((((..((((((((+))))))))..)))))))))  56.1 °C
41. CGACGTGCGCAATGTGCTG+CAGCACATGCGGCACGTCG ((((((((...((((((((+))))))))...))))))))  56.3 °C
42. CGACGTGCGATATGTGCTG+CAGCACATATGGCACGTCG ((((((((.((((((((((+)))))))))).))))))))  56.5 °C
43. CGACGTGCGATATGTGCTG+CAGCACATGGAGCACGTCG ((((((((...((((((((+))))))))...))))))))  57.4 °C
44. CGACGTGCGATATGTGCTG+CAGCACATGGCGCACGTCG (((((((((..((((((((+))))))))..)))))))))  57.4 °C
45. CGACGTGCGCAATGTGCTG+CAGCACATGTAGCACGTCG ((((((((...((((((((+))))))))...))))))))  57.5 °C
46. CGACGTGCGCAATGTGCTG+CAGCACATTTCGCACGTCG (((((((((.(((((((((+))))))))).)))))))))  57.5 °C
47. CGACGTGCGATATGTGCTG+CAGCACATAGAGCACGTCG ((((((((..(((((((((+)))))))))..))))))))  58.5 °C
48. CGACGTGCGCAATGTGCTG+CAGCACATGGAGCACGTCG ((((((((.(.((((((((+)))))))).).))))))))  60.2 °C
49. CGACGTGCGCAATGTGCTG+CAGCACATCGCGCACGTCG ((((((((((.((((((((+)))))))).))))))))))  60.3 °C
50. CGACGTGCGATATGTGCTG+CAGCACATGTCGCACGTCG ((((((((((.((((((((+)))))))).))))))))))  61 °C
51. CGACGTGCGCAATGTGCTG+CAGCACATAGCGCACGTCG ((((((((((.((((((((+)))))))).))))))))))  61.2 °C
52. CGACGTGCGCAATGTGCTG+CAGCACATTGCGCACGTCG (((((((((((((((((((+)))))))))))))))))))  67.1 °C

Reference: the array DNA melting data of Ke et al.
